# Where “and” joins values, the source holds several entries; their conditions need not be identical. Equal entries are not always repeated.
# B1: Lysozyme C, milk isozyme, P81708 (parent)
# chain: KIFSKCELARKLKSMGMDGFHGYSLANWVCMAEYESNFNTQAFNGRNSNGSSDYGIFQLNSKWWCKSNSHSSANACNIMCSKFLDDNIDDDIACAKRVVKDPNGMSAWVAWVKHCKGKDLSKYLASCNL
# Variants of: B1
# Details: Canis lupus familiaris, pH 4.5, Thermal, DSC, sodium acetate 50 mM, reversible: yes, structure 1EL1, whole UniProt chain shown
Variant,ddG of mutation (higher = less stable) (66.4 °C),unfolding enthalpy (calorimetric) (66.4 °C),unfolding free energy (66.4 °C),"change of melting temperature, mutant - wild type (higher = more stable) (transition: 3)",unfolding enthalpy (calorimetric) (transition: 3)
KIFSKCELARKLKSMGMDGFHGYSLANWVCMAEYESNFNTQAFNGRNSNGSSDYGIFQLNSKWWCKSNSHSSANACNIMCSKFLDDNIDDDIACAKRVVKDPNGMSAWKAWVKHCKGKDLSKYLASCNL [V109K],0.43 kcal/mol,31.9 kcal/mol,1.72 kcal/mol,-4.16 °C,43.8 kcal/mol and 42.8 kcal/mol
KIFSKCELARKLKSMGMDGFGGYSLANWVCMAEYESNFNTQAFNGRNSNGSSDYGIFQLNSKWWCKSNSHSSANACNIMCSKFLDDNIDDDIACAKRVVKDPNGMSAWVAWVKHCKGKDLSKYLASCNL [H21G],0.48 kcal/mol,29.1 kcal/mol,1.67 kcal/mol,-3.28 °C,29.9 kcal/mol and 40.6 kcal/mol
KIFSKCELARKLKSMGMDGFHGYSLANWVCMAEYESNFNTQAFNGRNSNGSSDYGIFQLNSKWWCKSNSHSSANACNIMCSKFLDDNIDDDISCAKRVVKDPNGMSAWVAWVKHCKGKDLSKYLASCNL [A93S],0.26 kcal/mol,32 kcal/mol,1.89 kcal/mol,-2.59 °C,39.6 kcal/mol and 43.8 kcal/mol
KIFSKCELARKLKSMGMDGFHGYSLANWVCMAEYESNFNTQAFNGRNSNGSSDYGLFQLNSKWWCKSNSHSSANACNIMCSKFLDDNIDDDIACAKRVVKDPNGMSAWVAWVKHCKGKDLSKYLASCNL [I56L],0.24 kcal/mol,31.8 kcal/mol,1.91 kcal/mol,-2.44 °C,23.8 kcal/mol and 43.8 kcal/mol

# Reference: FireProtDB (doi:10.1093/protein/14.12.967)
